Measured values published in PMC4488245.
pKd: −log10 of the molar value.

Experiments:
[1] = molecular target: TcP37/NRBD (T. cruzi (endogenous in CL Brener epimastigotes)); experiment: co-IP; anti-P34/P37 antibody cross-linked to Protein A Dynabeads, 1 mg epimastigote whole cell extract, 4°C overnight, washed in PBS-T; pellet and supernatant blotted with anti-TcL5 peptide antibody; extracts with or without RNase A (20 U/ml, 1 hour, 37°C)
[2] = test system: TcP37/NRBD (Trypanosoma cruzi CL Brener); experiment: filter binding; conditions: 10 mM Tris pH 7.4, 1 mM EDTA, 100 mM NaCl, 0.1% NP40, 100 ug/mL BSA; room temperature, 30 min; 0.5 fmol RNA in 50 ul, 0-500 nM protein
[3] = test system: TcL5 (ribosomal protein L5) (Trypanosoma cruzi CL Brener); experiment: filter binding; conditions: 10 mM Tris pH 7.4, 1 mM EDTA, 100 mM NaCl, 0.1% NP40, 100 ug/mL BSA; room temperature, 30 min; 0.5 fmol RNA in 50 ul, 0-500 nM protein
rTcL5 (T. cruzi) = experiment: co-IP; 500 ng rTcP37/NRBD and 500 ng rTcL5, with or without 500 ng in vitro transcribed Tc 5S rRNA, applied to TcL5 antibody cross-linked Dynabeads; eluate and supernatant blotted with P34/P37 antibodies

TcL5 (natural protein)
decrease of the association after RNase A treatment of the extract [1]: 74%

Tc 5S rRNA
pKd [2]: 7.20
pKd [3]: 7.96

rTcP37/NRBD (natural protein)
increase of the association in the presence of 5S rRNA (rTcL5 (T. cruzi)): 62%
